Results published in patent US20160159910A1 (Genentech, published 2016).
One block for each binder: values may come before it.

Experiments:
cynomolgus monkey B7-H4 [1] = molecular target: T1, cynomolgus monkey B7-H4 (cynomolgus monkey, UniProt Q7Z7D3 29-282 (human entry)); assay: Scatchard analysis, 125I-antibody radioligand cell binding on stably transfected 293 cells
T1 construct: On stably transfected 293 cells; also called cyno B7-H4; recombinant cynomolgus monkey B7-H4
T1 chain: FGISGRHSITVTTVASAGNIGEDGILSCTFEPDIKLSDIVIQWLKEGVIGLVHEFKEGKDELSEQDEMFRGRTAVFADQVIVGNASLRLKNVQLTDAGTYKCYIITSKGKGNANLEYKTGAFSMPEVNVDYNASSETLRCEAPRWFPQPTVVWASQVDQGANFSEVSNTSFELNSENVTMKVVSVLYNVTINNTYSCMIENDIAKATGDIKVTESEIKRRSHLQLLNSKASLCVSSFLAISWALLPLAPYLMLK
Protocol: (§1) Competition assay mixtures of 50 μL volume containing a fixed concentration of [I¹²⁵] labeled antibody and decreasing concentrations of serially diluted, unlabeled antibody were placed into 96-well plates. […] Cells were detached from the flask using Sigma Cell Dissociation Solution and were washed with binding buffer, which consisted of Dulbecco's Modified Eagle Medium (DMEM) with 1% bovine serum albumin (BSA), […] and 0.1% sodium azide. The washed cells were added to the 96 well plates at a density of 100,000 cells in 0.2 mL of binding buffer. The final concentration of the [I¹²⁵] labeled antibody in each well was ˜250 pM. The final concentration of the unlabeled antibody in the competition assay ranged from 1000 nM through ten 2-fold dilution steps to a 0 nM buffer-only assay. Competition assays were carried out in triplicate. Competition assays were incubated for 2 hours at room temperature. After the 2-hour incubation, the competition assays were transferred to a Millipore Multiscreen filter plate (Billerica, Mass.) and washed 4 times with binding buffer to separate the free from bound [I¹²⁵] labeled antibody. The filters were counted on a Wallac Wizard 1470 gamma counter (PerkinElmer Life and Analytical Sciences Inc.; Wellesley, Mass.). The binding data was evaluated using NewLigand software (Genentech), which uses the fitting algorithm of Munson and Robard to determine the binding affinity of the antibody (Munson and Robard 1980).

human B7-H4 [2] = molecular target: T2, human B7-H4 (human, UniProt Q7Z7D3 29-282); assay: as above
T2 construct: On stably transfected 293 cells (recombinant) or on MX-1 / SKBR3 tumor cells (endogenous); the cell is named under assay; also called huB7-H4; hB7-H4
T2 sequence: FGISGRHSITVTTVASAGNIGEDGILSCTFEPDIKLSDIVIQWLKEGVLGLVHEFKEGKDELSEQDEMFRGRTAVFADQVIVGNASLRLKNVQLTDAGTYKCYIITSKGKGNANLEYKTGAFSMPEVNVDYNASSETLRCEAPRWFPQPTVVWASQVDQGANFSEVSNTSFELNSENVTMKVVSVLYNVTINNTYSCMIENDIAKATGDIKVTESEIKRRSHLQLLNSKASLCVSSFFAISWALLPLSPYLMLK
Protocol: as §1

mouse B7-H4 [3] = molecular target: T3, mouse B7-H4 (mouse, UniProt Q7TSP5 29-283); assay: as above
T3 construct: On stably transfected 293 cells; also called muB7-H4; recombinant mouse B7-H4
T3 sequence: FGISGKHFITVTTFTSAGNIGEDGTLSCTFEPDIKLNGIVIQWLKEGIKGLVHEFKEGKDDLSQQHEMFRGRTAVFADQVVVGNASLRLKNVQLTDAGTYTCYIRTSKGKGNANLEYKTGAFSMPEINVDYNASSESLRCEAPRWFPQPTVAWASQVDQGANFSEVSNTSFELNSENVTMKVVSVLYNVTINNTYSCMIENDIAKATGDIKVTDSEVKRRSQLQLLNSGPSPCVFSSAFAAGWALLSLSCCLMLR
Protocol: as §1

rat B7-H4 [4] = molecular target: T4, rat B7-H4 (rat, UniProt Q501W4 29-282); assay: as above
T4 construct: On stably transfected 293 cells; also called recombinant rat B7-H4
T4 sequence: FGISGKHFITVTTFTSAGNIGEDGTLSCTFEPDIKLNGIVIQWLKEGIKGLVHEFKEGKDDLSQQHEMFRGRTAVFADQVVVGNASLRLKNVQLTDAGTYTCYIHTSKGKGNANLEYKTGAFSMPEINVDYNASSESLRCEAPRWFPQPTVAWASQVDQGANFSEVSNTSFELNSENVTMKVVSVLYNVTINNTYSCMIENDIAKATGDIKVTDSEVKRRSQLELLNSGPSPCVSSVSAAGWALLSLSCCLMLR
Protocol: as §1

mouse B7-H4 [5] = molecular target: T3, mouse B7-H4; assay: FACS titration on 293 cells expressing recombinant mouse B7-H4 (panel '293-mouse B7-H4', lower block), geometric mean fluorescence
Protocol: (§2) The fluorescent signal was acquired with a BD FACS Calibur and EC₅₀ values were determined with the Graph Pad program Prism 4.

human B7-H4 [6] = molecular target: T2, human B7-H4; assay: FACS titration on 293 cells expressing recombinant human B7-H4 (panel '293-human B7-H4', lower block), Dylight-650 goat anti-human IgG, geometric mean fluorescence
Protocol: as §2

human B7-H4 [7] = molecular target: T2, human B7-H4; assay: FACS titration on MX-1 tumor cells, endogenous human B7-H4 (panel 'MX-1 tumor cell line', lower block), geometric mean fluorescence
Protocol: as §2

cynomolgus monkey B7-H4 [8] = molecular target: T1, cynomolgus monkey B7-H4; assay: FACS titration on 293 cells expressing recombinant cynomolgus B7-H4 (panel '293-cyno B7-H4', lower block), geometric mean fluorescence
Protocol: as §2

human B7-H4 [9] = molecular target: T2, human B7-H4; assay: Scatchard analysis, 125I-antibody radioligand cell binding on MX-1 tumor cells
Protocol: as §1

[10] = molecular target: T5, human B7-H4 S114A glycosylation mutant (human, UniProt Q7Z7D3 29-282); assay: FACS on 293 cells transfected with S114A human B7-H4 (glycosylation independence)
T5 construct: Full-length human B7-H4 membrane construct with S114 changed to alanine to prevent N-linked glycosylation at N112-S114; transiently expressed on 293 cells; also called mutated S114A human B7-H4; recombinant human B7-H4 S114A
T5 sequence: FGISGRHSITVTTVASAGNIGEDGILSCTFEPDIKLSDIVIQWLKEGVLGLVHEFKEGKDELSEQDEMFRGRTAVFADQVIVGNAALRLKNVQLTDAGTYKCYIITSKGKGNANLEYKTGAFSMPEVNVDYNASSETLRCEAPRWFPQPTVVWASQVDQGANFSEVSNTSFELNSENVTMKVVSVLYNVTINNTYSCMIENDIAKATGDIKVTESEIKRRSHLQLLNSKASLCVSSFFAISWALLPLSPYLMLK

human B7-H4 [11] = molecular target: T2, human B7-H4; assay: cell-based or functional assay
human B7-H4 [12] = molecular target: T2, human B7-H4; assay: Scatchard analysis, radioligand cell binding on MX-1 cells (endogenous human B7-H4)
Protocol: as §1, with “After the 2-hour incubation, the competition assays were transferred to a Millipore Multiscreen filter plate (Billerica, Mass.) and washed 4 times with binding buffer to separate the free from bound [I¹²⁵] labeled antibody.” left out

cynomolgus monkey B7-H4 [13] = molecular target: T1, cynomolgus monkey B7-H4; assay: Scatchard analysis, radioligand cell binding on 293 cells expressing recombinant B7-H4
Protocol: as §1

human B7-H4 [14] = molecular target: T2, human B7-H4; assay: as above
Protocol: as §1

mouse B7-H4 [15] = molecular target: T3, mouse B7-H4; assay: as above
Protocol: as §1

rat B7-H4 [16] = molecular target: T4, rat B7-H4; assay: as above
Protocol: as §1

B3: hu22C10v2.7-vc-MMAE (antibody)
heavy: not shown
light: DIQMTQSPSSLSASVGDRVTITCSATSSISYMHWYQQKPGKAPKGWIYDTSKLAHGVPSRFSGSGSGTDFTLTISSLQPEDFATYYCHQRRSYPFTFGQGTKVEIKRTVAAPSVFIFPPSDEQLKSGTASVVCLLNNFYPREAKVQWKVDNALQSGNSQESVTEQDSKDSTYSLSSTLTLSKADYEKHKVYACEVTHQGLSSPVTKSFNRGEC
modifications: MC-vc-PAB-MMAE conjugated to reduced cysteine residues of the antibody (sites not given); DAR ~3
- EC50 of in vitro killing (CellTiter-Glo cell viability, 4 days) of 293 cells over-expressing recombinant human B7-H4 (human B7-H4 [11]): 0.0339 µg/mL

B4: hu22C10v2.7 IgG1 A118C-vc-MMAE (antibody)
heavy: not shown
light: DIQMTQSPSSLSASVGDRVTITCSATSSISYMHWYQQKPGKAPKGWIYDTSKLAHGVPSRFSGSGSGTDFTLTISSLQPEDFATYYCHQRRSYPFTFGQGTKVEIKRTVAAPSVFIFPPSDEQLKSGTASVVCLLNNFYPREAKVQWKVDNALQSGNSQESVTEQDSKDSTYSLSSTLTLSKADYEKHKVYACEVTHQGLSSPVTKSFNRGEC
modifications: MC-vc-PAB-MMAE on the engineered cysteine A118C (EU numbering); DAR ~2
- EC50 of in vitro killing (CellTiter-Glo cell viability, 4 days) of 293 cells over-expressing recombinant human B7-H4 (human B7-H4 [11]): 0.0405 µg/mL

B5: chimeric antibody ch9B9 (antibody, human IgG1, V domains shown)
VH: QVQLQQSGAELMKPGASVKMSCKATGYTFSSYWIEWVKQRPGHGLEWIGEILPGTSITTYNAKFKVKATFTADTSSNTAYMQLSSLTSEDSAVYFCARYYFGSSSFYFDYWGQGTSLTVSS
VL: QAVVTQESALTTSPGDTVTLTCRSSTGAVTTSNYANWVQEKPDHLFTGLIGGTNNRVPGVPARFSGSLIGDKAALTITGAQTEDEAMYFCALWYNNHWVFGGGTKLE
notes: also called antibody 9B9
- Kd (cynomolgus monkey B7-H4 [1]): 5.2 nM
- Kd (human B7-H4 [2]): 6.6 nM
- Kd (mouse B7-H4 [3]): 13.7 nM
- Kd (rat B7-H4 [4]): 4.7 nM
- fold binding over the isotype control [10]: 100 fold

B6: hu1D11v1.9-varD-vc-MMAE (antibody)
heavy: not shown
light: DIQMTQSPSSLSASVGDRVTITCKASQGFNKYVAWYQQKPGKAPKLLIYYTSTLQPGVPSRFSGSGSGRDYTLTISSLQPEDFATYYCLQYGDLLYAFGQGTKVEIKRTVAAPSVFIFPPSDEQLKSGTASVVCLLNNFYPREAKVQWKVDNALQSGNSQESVTEQDSKDSTYSLSSTLTLSKADYEKHKVYACEVTHQGLSSPVTKSFNRGEC
modifications: MC-vc-PAB-MMAE conjugated to reduced cysteine residues of the antibody (sites not given); DAR ~3
- EC50 of in vitro killing (CellTiter-Glo cell viability, 4 days) of 293 cells over-expressing recombinant human B7-H4 (human B7-H4 [11]): 0.0554 µg/mL

B7: hu1D11v1.9-varD IgG1 A118C-vc-MMAE (antibody)
heavy: not shown
light: DIQMTQSPSSLSASVGDRVTITCKASQGFNKYVAWYQQKPGKAPKLLIYYTSTLQPGVPSRFSGSGSGRDYTLTISSLQPEDFATYYCLQYGDLLYAFGQGTKVEIKRTVAAPSVFIFPPSDEQLKSGTASVVCLLNNFYPREAKVQWKVDNALQSGNSQESVTEQDSKDSTYSLSSTLTLSKADYEKHKVYACEVTHQGLSSPVTKSFNRGEC
modifications: MC-vc-PAB-MMAE on the engineered cysteine A118C (EU numbering); DAR ~2
- EC50 of in vitro killing (CellTiter-Glo cell viability, 4 days) of 293 cells over-expressing recombinant human B7-H4 (human B7-H4 [11]): 0.0819 µg/mL

Next, values leading:

- Kd (cynomolgus monkey B7-H4 [1]): 4.1 nM
- Kd (human B7-H4 [2]): 6.1 nM
- Kd (mouse B7-H4 [3]): 9.4 nM
- Kd (rat B7-H4 [4]): 4.1 nM
- EC50 (mouse B7-H4 [5]): 0.38 µg/mL
- EC50 (human B7-H4 [6]): 0.96 µg/mL
- EC50 (human B7-H4 [7]): 0.67 µg/mL
- EC50 (cynomolgus monkey B7-H4 [8]): 0.66 µg/mL
- Kd (human B7-H4 [9]): 7.8 nM
B1: chimeric antibody ch1D11 (antibody, human IgG1, V domains shown)
VH: QVQLQQSGAELVRPGTSVKMSCKASGYTFTSYWIGWAKQRPGHGFEWIGDIYPGGGYTNYNEKFKGKATLTADKSSSTAYMQFSSLTSEDSAIYYCARLDGSSYRGAMDSWGQGTSITVSS
VL: DIQMTQSPSSLSASLGGKVTITCKASQGFNKYVAWYQHKPGQCPRLLIHYTSTLQPGIPARFSGSGSGRDYSFSISNLEPEDSATYFCLQYGNLLYAFGGGTKLEIKR
notes: also called parental 1D11 antibody; antibody 1D11

- fold binding over the isotype control [10]: 100 fold
B2: ch1D11, slightly modified version with light chain C43G (antibody, V domains shown)
VH: QVQLQQSGAELVRPGTSVKMSCKASGYTFTSYWIGWAKQRPGHGFEWIGDIYPGGGYTNYNEKFKGKATLTADKSSSTAYMQFSSLTSEDSAIYYCARLDGSSYRGAMDSWGQGTSITVSS
VL: DIQMTQSPSSLSASLGGKVTITCKASQGFNKYVAWYQHKPGQGPRLLIHYTSTLQPGIPARFSGSGSGRDYSFSISNLEPEDSATYFCLQYGNLLYAFGGGTKLEIKR
notes: Human IgG1 / human kappa chimeric antibody; Dylight-488 or -650 labeled in the assay; also called ch1D11 (C43G)

- EC50 (mouse B7-H4 [5]): 0.36 µg/mL
B8: humanized 1D11.v1.9 (antibody, V domains shown)
VH: EVQLVQSGAEVKKPGASVKVSCKASGYTFTSYWIGWVRQAPGQGLEWIGDIYPGGGYTNYNEKFKGRVTITRDTSTSTAYLELSSLRSEDTAVYYCARLDGSSYRGAMDSWGQGTLVTVSS
VL: DIQMTQSPSSLSASVGDRVTITCKASQGFNKYVAWYQQKPGKAPKLLIYYTSTLQPGVPSRFSGSGSGRDYTLTISSLQPEDFATYYCLQYGNLLYAFGQGTKVEIKR
notes: also called hu1D11.v1.9; h1D11.v1.9

- Kd (human B7-H4 [12]): 2 nM
- Kd (cynomolgus monkey B7-H4 [13]): 1 nM
- Kd (human B7-H4 [14]): 0.9 nM
- Kd (mouse B7-H4 [15]): 2.1 nM
- Kd (rat B7-H4 [16]): 1.2 nM
B9: hu1D11.v1.9 varC2 (antibody, V domains shown)
VH: EVQLVQSGAEVKKPGASVKVSCKASGYTFTSYWIGWVRQAPGQGLEWIGDIYPGGGYTNYNEKFKGRVTITRDTSTSTAYLELSSLRSEDTAVYYCARLAGSSYRGAMDSWGQGTLVTVSS
VL: DIQMTQSPSSLSASVGDRVTITCKASQGFNKYVAWYQQKPGKAPKLLIYYTSTLQPGVPSRFSGSGSGRDYTLTISSLQPEDFATYYCLQYGDLLYAFGQGTKVEIKR
notes: IgG1 / kappa; also called h1D11v1.9_VarC2; h1D11v1.9 variant C2
